Measured values: patent US20210169980A1

Molecular target: GABARAP (human) (UniProt O95166)
Experiment: ITC, GABARAP titrated into the peptide

Chain of GABARAP (human) (O95166 whole entry): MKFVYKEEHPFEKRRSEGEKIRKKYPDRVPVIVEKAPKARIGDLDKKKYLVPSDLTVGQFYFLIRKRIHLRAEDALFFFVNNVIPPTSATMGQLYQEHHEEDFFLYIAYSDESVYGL

FAM134B LIR-L E462R (peptide)
Kd: 633 nM
